The values below come from publication PMC11024467, “A novel dual mechanism-of-action bispecific PD-1-IL-2v armed by a “βγ-only” interleukin-2 variant” (Frontiers in Immunology, 2024).

The target in experiment [1] is T1, IL-2Rβγ complex (UniProt P14784 27-551; P31785 23-369). Kind of experiment: SPR; Biacore, IL-2 receptor proteins immobilised on a CM5 chip; wild-type IL-2 or variant 012 flowed over at stepwise concentrations for 120 s, then blank solution; 1:1 binding fit (steady state affinity for 001 on IL-2Rα). Particulars: both partners purified. (SPR reads the build-up and loss of mass on a sensor chip optically.)
T1 sequence (P14784 27-551, chain 1 of 2): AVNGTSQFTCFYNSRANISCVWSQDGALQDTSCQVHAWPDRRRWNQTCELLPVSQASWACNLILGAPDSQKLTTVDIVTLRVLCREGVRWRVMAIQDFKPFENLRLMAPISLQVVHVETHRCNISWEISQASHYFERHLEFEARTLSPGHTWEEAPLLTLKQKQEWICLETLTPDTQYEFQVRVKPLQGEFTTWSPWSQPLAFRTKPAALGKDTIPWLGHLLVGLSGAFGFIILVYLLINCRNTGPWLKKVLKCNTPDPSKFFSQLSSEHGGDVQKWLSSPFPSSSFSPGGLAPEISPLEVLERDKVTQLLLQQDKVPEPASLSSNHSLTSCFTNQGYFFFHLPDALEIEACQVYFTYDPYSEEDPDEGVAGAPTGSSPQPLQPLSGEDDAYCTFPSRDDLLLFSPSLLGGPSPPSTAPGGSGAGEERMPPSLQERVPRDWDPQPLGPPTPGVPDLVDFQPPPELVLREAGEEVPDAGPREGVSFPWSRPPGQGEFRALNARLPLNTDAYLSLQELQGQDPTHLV
T1 sequence (P31785 23-369, chain 2 of 2): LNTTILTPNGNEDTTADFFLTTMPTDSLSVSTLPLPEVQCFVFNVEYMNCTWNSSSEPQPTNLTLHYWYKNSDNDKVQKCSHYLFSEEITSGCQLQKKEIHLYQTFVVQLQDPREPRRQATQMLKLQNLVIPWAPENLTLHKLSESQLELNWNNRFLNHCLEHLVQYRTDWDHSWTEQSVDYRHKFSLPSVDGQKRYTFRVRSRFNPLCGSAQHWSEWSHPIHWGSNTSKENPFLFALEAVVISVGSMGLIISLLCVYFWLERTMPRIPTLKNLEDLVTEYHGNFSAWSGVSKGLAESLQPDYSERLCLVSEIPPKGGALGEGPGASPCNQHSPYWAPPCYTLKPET

For experiment [2], the target named is T1, IL-2Rβγ complex. Kind of experiment: cell-based or functional assay.
Another experiment concerns the target IL-2Rαβγ complex (UniProt P01589 22-272; P14784 27-551; P31785 23-369). Kind of experiment: SPR; Biacore, IL-2 receptor proteins immobilised on a CM5 chip; wild-type IL-2 or variant 012 flowed over at stepwise concentrations for 120 s, then blank solution; 1:1 binding fit (steady state affinity for 001 on IL-2Rα). Conditions: both partners purified.

IL-2Rαβγ complex, sequence (P01589 22-272, chain 1 of 3): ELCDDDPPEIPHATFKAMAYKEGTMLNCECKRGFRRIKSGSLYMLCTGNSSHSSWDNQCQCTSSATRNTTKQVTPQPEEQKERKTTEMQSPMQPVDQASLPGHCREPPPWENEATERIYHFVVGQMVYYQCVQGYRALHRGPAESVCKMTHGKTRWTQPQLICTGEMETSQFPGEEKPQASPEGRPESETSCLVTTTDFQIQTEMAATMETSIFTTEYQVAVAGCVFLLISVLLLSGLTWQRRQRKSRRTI
IL-2Rαβγ complex, sequence (P14784 27-551, chain 2 of 3): as the sequence (P14784 27-551, chain 1 of 2) above
IL-2Rαβγ complex, sequence (P31785 23-369, chain 3 of 3): as the sequence (P31785 23-369, chain 2 of 2) above

B1: IL-2 variant 012 (ligand)
chain: PTSSSTKKTQLQLEHLLLDLQMILNGINNYKNPLRPRDLISNINVIVLELKGSETTELKHLQSLEEELKDLEEVLNLAQSKNFHTIVEFLNRWITFSQSIISTLT
notes: also called βγ-only IL-2v
Regarding B1, in the experiment with IL-2Rβγ complex [1], the Kd – broadly, the equilibrium constant for the complex coming apart – was determined as 0.467 nM and the koff – broadly, the first-order rate constant of dissociation – was 0.00106 s⁻¹. Further, in the experiment with IL-2Rβγ complex [2], the “EC50 of STAT5 activation (pSTAT5) in CD8 T cells of human PBMC (Table S4)” value turned out to be 18.6 nM and the “EC50 of STAT5 activation (pSTAT5) in NK cells of human PBMC (Table S4)” value amounted to 5.11 nM. In the experiment with IL-2Rαβγ complex, this molecule yielded a Kd of 0.575 nM and a koff of 0.000732 s⁻¹.
